This is an account of results in publication PMC2132842.

Targets include GAL4/LEF-1 (297–399) (UniProt Q9UJU2); GAL4/Imp βΔ1/261 (human) (UniProt Q14974); GAL4/CAS (human) (UniProt P55060).
What all share (experiment): two-hybrid

Chain of GAL4/LEF-1 (297–399) (Q9UJU2 297-399): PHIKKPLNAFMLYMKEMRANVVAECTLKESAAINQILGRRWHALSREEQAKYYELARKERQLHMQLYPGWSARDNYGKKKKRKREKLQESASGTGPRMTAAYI
Chain of GAL4/Imp βΔ1/261 (human) (Q14974 262-876, stated change not applied): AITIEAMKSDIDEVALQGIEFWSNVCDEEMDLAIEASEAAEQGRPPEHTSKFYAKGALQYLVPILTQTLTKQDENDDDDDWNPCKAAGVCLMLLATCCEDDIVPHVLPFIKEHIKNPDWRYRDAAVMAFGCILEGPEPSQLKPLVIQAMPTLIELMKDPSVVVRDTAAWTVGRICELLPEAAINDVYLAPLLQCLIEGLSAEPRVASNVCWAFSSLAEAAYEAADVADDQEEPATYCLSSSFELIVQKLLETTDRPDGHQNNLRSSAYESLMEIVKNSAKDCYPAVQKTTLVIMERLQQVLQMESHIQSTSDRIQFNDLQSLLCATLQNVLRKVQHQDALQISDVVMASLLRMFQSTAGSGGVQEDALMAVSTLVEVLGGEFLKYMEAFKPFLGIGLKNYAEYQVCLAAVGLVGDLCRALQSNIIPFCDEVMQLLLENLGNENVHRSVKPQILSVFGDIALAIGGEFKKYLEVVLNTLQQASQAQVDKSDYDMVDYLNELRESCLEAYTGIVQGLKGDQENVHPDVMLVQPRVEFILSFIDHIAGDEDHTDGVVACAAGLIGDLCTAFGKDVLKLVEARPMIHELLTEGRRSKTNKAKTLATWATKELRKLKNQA
Chain of GAL4/CAS (human) (P55060 whole entry, the tested form may be a part): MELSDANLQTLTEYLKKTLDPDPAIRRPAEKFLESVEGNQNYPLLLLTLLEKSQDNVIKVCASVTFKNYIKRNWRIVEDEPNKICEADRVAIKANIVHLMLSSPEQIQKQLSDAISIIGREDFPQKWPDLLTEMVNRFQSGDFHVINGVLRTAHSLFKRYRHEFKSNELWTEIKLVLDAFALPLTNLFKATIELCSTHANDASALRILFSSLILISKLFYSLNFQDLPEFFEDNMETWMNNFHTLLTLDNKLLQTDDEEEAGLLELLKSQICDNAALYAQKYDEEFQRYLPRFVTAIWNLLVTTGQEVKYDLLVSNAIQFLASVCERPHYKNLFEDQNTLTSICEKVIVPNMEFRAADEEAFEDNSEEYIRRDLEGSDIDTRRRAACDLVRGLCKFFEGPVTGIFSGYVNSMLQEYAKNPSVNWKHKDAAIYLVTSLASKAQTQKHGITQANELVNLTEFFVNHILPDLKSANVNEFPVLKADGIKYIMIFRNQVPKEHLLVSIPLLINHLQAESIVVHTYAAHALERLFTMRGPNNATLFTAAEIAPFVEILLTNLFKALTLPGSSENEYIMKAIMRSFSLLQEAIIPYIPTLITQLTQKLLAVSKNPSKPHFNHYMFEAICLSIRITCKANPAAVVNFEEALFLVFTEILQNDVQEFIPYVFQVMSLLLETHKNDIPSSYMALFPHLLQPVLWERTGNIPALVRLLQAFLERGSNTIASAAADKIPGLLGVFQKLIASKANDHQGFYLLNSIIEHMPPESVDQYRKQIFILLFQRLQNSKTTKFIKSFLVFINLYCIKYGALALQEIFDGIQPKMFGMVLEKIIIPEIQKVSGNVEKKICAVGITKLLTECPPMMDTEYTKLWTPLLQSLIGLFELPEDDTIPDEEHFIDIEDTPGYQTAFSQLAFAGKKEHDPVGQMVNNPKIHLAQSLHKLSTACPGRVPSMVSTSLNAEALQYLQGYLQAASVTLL

For the substance “VP16/Imp α2 (from UniProt P52292 1-529) (natural protein)”, the β-gal activity with GAL4/LEF-1 (297–399) is 130 mOD/ml; with GAL4/Imp βΔ1/261 (human) it was 1200 mOD/ml; with GAL4/CAS (human) it was 434 mOD/ml.
